Measurements reported in patent US7169559B2, “LDL receptor-related proteins 1 and 2 and treatment of bone or cartilage conditions” (Fonterra Corporate Research and Development Ltd., priority 2002, dated 2007).

Experiments:
[1] = tested on: p42/44 MAP kinase signaling pathway; assay: p42/44 MAP kinase signaling / phosphorylation in osteoblastic cells; type: cell-based
[2] = unilateral local hemicalvarial injection in adult mice; type: in vivo
osteoclastogenesis = assay: murine bone marrow culture assay of osteoclastogenesis; type: cell-based
chondrocytes = assay: chondrocyte mitogenesis; type: cell-based
LRP-1 = LRP-1 (Homo sapiens, UniProt Q07954); assay: binding of lactoferrin to LRP-1
LRP-1, sequence (Q07954 20-4544, species assumed): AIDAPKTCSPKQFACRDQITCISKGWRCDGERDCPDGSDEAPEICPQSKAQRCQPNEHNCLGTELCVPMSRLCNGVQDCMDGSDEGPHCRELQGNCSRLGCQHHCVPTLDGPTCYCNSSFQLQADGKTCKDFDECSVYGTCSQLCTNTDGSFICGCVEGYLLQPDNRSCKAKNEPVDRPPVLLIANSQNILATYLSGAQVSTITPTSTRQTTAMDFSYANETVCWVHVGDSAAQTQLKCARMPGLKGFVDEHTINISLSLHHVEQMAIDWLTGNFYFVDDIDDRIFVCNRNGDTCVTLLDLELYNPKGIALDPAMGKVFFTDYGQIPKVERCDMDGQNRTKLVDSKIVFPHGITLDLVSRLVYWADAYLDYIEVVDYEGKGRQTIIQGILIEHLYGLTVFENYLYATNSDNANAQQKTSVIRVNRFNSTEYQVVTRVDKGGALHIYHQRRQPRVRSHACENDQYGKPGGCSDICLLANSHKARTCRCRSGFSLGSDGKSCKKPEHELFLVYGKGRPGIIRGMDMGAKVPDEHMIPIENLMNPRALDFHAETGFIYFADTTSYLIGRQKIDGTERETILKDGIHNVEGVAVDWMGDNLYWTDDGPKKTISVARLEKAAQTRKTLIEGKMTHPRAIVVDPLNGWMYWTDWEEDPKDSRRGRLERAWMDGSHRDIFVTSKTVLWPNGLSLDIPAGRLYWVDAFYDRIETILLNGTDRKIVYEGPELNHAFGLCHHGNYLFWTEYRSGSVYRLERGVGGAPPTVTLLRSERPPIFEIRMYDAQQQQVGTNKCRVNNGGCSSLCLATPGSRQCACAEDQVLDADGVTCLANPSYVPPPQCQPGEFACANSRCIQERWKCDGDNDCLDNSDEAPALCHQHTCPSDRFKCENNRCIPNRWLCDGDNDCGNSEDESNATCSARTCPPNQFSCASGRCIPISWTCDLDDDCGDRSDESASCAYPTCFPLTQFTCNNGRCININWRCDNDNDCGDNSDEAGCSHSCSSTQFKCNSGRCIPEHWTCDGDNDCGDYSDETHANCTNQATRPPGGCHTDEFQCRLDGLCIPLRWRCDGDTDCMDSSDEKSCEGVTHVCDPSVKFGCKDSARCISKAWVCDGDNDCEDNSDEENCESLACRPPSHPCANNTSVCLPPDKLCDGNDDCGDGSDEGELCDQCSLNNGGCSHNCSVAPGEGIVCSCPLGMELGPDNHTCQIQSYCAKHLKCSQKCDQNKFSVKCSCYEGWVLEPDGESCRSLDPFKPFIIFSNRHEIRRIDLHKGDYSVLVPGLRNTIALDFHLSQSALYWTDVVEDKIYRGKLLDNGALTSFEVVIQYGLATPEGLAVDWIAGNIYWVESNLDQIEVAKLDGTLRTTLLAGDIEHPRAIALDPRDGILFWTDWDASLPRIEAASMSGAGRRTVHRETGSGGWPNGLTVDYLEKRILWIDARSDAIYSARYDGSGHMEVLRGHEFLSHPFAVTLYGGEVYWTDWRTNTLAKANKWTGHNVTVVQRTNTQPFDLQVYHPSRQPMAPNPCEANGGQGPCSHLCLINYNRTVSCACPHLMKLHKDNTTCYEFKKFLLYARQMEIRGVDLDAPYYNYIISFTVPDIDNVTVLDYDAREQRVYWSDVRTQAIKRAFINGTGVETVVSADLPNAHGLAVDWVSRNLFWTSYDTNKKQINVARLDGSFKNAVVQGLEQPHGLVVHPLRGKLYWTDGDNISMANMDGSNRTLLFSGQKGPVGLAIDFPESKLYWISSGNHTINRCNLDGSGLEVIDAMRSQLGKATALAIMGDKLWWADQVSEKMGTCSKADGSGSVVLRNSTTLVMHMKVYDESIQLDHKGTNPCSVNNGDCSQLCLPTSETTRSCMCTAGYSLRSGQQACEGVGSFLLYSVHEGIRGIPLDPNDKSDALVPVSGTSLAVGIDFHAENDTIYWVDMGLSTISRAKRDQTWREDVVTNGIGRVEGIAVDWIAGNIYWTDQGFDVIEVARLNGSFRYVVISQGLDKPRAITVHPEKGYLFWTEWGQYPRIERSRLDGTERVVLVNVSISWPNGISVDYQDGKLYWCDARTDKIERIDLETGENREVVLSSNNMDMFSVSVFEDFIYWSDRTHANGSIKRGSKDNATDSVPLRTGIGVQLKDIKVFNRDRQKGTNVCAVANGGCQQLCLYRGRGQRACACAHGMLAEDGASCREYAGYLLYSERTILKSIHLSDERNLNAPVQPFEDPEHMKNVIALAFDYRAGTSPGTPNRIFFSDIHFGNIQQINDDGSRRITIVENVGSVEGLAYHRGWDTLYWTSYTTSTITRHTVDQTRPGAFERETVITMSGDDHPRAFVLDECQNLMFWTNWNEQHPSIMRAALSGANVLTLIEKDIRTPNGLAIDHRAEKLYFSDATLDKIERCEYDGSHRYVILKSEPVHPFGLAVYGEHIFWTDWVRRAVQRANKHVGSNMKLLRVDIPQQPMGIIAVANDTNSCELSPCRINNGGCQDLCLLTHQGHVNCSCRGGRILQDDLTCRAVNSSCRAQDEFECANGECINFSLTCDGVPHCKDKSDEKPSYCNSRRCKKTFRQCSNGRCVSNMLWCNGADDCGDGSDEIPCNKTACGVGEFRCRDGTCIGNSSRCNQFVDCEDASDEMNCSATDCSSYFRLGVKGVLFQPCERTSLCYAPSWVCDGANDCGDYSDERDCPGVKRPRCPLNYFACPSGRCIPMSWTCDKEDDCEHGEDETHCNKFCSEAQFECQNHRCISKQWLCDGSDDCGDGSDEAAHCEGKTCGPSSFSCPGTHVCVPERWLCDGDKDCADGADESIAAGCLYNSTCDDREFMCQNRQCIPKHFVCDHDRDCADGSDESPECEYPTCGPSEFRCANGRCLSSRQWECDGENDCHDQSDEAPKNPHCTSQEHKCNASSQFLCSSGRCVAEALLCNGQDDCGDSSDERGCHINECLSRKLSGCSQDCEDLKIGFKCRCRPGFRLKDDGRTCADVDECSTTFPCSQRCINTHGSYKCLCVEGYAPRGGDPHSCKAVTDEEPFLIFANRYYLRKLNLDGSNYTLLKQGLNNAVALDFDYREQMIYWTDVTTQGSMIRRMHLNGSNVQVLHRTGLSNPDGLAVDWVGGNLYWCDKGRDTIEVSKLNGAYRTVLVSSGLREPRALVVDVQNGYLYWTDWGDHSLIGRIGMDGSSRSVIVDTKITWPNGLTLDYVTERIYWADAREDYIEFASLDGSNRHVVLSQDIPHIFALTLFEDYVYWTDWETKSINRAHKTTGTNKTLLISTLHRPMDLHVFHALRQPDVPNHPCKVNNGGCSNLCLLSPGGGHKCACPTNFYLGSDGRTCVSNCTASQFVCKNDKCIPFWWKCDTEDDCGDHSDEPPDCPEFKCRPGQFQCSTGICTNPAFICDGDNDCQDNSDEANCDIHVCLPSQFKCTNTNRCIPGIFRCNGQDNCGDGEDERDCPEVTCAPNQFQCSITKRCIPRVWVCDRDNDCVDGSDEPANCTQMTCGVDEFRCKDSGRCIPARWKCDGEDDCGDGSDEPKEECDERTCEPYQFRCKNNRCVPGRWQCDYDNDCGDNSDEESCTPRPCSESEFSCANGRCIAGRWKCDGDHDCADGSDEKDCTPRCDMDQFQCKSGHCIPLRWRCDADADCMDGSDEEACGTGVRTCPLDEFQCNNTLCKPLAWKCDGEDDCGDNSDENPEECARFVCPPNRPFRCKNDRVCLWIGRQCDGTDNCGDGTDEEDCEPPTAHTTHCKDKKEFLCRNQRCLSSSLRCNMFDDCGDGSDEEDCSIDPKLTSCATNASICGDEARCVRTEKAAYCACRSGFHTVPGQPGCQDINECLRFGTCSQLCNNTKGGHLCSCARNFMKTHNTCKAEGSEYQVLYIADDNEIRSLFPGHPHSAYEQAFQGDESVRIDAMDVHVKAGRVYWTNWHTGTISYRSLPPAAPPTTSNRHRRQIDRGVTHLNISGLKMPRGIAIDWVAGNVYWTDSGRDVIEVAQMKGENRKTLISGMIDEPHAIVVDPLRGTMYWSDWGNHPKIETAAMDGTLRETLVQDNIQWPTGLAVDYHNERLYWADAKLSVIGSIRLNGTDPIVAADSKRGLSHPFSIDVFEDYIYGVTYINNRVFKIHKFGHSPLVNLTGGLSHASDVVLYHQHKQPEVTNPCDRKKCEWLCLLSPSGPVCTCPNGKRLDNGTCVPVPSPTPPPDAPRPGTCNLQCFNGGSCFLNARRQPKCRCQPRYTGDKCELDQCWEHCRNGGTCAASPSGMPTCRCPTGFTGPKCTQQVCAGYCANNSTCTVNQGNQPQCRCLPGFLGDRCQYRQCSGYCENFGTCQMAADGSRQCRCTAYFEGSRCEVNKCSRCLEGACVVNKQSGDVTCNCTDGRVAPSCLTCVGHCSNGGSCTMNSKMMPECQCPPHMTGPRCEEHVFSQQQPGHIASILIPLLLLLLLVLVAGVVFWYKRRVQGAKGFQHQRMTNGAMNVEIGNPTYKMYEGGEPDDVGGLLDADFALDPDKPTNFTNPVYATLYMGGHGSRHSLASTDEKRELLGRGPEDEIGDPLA

LRP-2/megalin = LRP-2/megalin (Homo sapiens, UniProt P98164); assay: binding of lactoferrin to LRP-2
LRP-1-null fibroblasts = assay: proliferation in LRP-1-null versus LRP-1+/+ fibroblasts; type: cell-based
primary rat osteoblasts = assay: apoptosis induced by serum withdrawal; type: cell-based
Experimental: (§1) Osteoblasts were isolated from 20-day old fetal rat calvariae as previously described (Cornish et al. (1999) Amer. J. Physiol-Endocrinol. Metab. 277:E779–E783). Briefly, calvariae were excised and the frontal and parietal bones, free of suture and periosteal tissue, were collected. After washing, the calvariae were treated twice with 3 mL of 1 mg/mL collagenase for 7 minutes at 37° C. After discarding the supernatants from these two digestions, the calvariae were treated a further twice with 3 mL of 2 mg/mL collagenase (30 mins, 37° C.). The supernatants of the latter two digestions were pooled, centrifuged, and the cells washed. Cells were grown to confluence and then subcultured into 24 well plates. Cells were growth arrested in minimum essential medium (MEM)/0.1% bovine serum albumin for 24 h before harvest.

mature osteoclasts = assay: bone-resorbing activity of mature osteoclasts; type: cell-based
osteoblast = osteoblast differentiation / mineralized bone nodules in long-term osteoblast cultures; type: cell-based
[3] = tested on: primary rat osteoblastic cells; assay: endocytosis of lactoferrin observed under confocal microscopy; type: cell-based
Experimental: as §1

SaOS-2 cells = assay: proliferation in SaOS-2 cells; type: cell-based, human; conditions: only LRP-1 is expressed in SaOS-2 cells
Experimental: (§2) The human osteoblast-like osteosarcoma cell line SaOS-2 was maintained in DMEM (GIBCO 12100-046) supplemented with 2.2 g/L NaHCO3, 10% FBS, and 10 ml/L penicillin-streptomycin (GIBCO 15140-122). Cells were plated in 75 cm^2 flasks and when confluent used for total RNA isolation or proliferation assays.

[4] = tested on: cultured osteoblastic cells; assay: osteoblast proliferation (mitogenic/osteogenic effect); type: cell-based, rat, mouse, and human
Experimental: as §1, §2

Row | Molecule | activation of p42/44 MAP kinase signaling pathway ([1]; osteoblastic cells) | bone area [2] | indices of bone formation [2] | osteoclastogenesis (osteoclastogenesis) | mitogenic to chondrocytes (chondrocytes) | binding to LRP-1 (LRP-1) | binding to LRP-2/megalin (LRP-2/megalin) | proliferation in LRP-1-null fibroblasts compared with LRP-1+/+ cells (LRP-1-null fibroblasts) | apoptosis induced by serum withdrawal (primary rat osteoblasts) | bone-resorbing activity of mature osteoclasts (mature osteoclasts) | osteoblast differentiation (osteoblast) | number of mineralized bone nodules (osteoblast; long-term osteoblast cultures) | endocytosis by primary rat osteoblastic cells [3] | proliferation in SaOS-2 cells (SaOS-2 cells) | proliferation of cultured osteoblastic cells ([4]; cells of rat, mouse, and human origin) | effect on lactoferrin-induced MAP kinase phosphorylation ([1]; in the presence of lactoferrin) | effect on endocytosis of lactoferrin ([3]; primary rat osteoblastic cells) | effect on lactoferrin-induced osteoblast proliferation ([4]; in the presence of lactoferrin)
1 | Lactoferrin: an 80 kDa glycoprotein present in milk and epithelial secretions; osteoblast growth factor present in fractionated bovine milk (protein, UniProt P24627 20-708, looked up) Lactotransferrin: APRKNVRWCTISQPEWFKCRRWQWRMKKLGAPSITCVRRAFALECIRAIAEKKADAVTLDGGMVFEAGRDPYKLRPVAAEIYGTKESPQTHYYAVAVVKKGSNFQLDQLQGRKSCHTGLGRSAGWIIPMGILRPYLSWTESLEPLQGAVAKFFSASCVPCIDRQAYPNLCQLCKGEGENQCACSSREPYFGYSGAFKCLQDGAGDVAFVKETTVFENLPEKADRDQYELLCLNNSRAPVDAFKECHLAQVPSHAVVARSVDGKEDLIWKLLSKAQEKFGKNKSRSFQLFGSPPGQRDLLFKDSALGFLRIPSKVDSALYLGSRYLTTLKNLRETAEEVKARYTRVVWCAVGPEEQKKCQQWSQQSGQNVTCATASTTDDCIVLVLKGEADALNLDGGYIYTAGKCGLVPVLAENRKSSKHSSLDCVLRPTEGYLAVAVVKKANEGLTWNSLKDKKSCHTAVDRTAGWNIPMGLIVNQTGSCAFDEFFSQSCAPGADPKSRLCALCAGDDQGLDKCVPNSKEKYYGYTGAFRCLAEDVGDVAFVKNDTVWENTNGESTADWAKNLNREDFRLLCLDGTRKPVTEAQSCHLAVAPNHAVVSRSDRAAHVKQVLLHQQALFGKNGKNCPDKFCLFKSETKNLLFNDNTECLAKLGGRPTYEEYLGTEYVTAIANLKKCSTSPLLEACAFLTR | activates the p42/44 MAP kinase signaling pathway | dose-dependent and substantial increases | dose-dependent and substantial increases | strongly inhibits osteoclastogenesis | mitogenic to chondrocytes | has been found to bind | has been found to bind | substantially less marked | inhibits apoptosis | does not affect | capable of inducing osteoblast differentiation | significantly increase | is endocytosed | induces proliferation | stimulates proliferation of cultured osteoblastic cells of rat, mouse, and human origin potently and in a dose-dependent manner |  |  | 
2 | RAP: the LRP-1/2-specific inhibitor, receptor-associated protein (RAP) (protein, UniProt P30533 35-357, looked up) Alpha-2-macroglobulin …: YSREKNQPKPSPKRESGEEFRMEKLNQLWEKAQRLHLPPVRLAELHADLKIQERDELAWKKLKLDGLDEDGEKEARLIRNLNVILAKYGLDGKKDARQVTSNSLSGTQEDGLDDPRLEKLWHKAKTSGKFSGEELDKLWREFLHHKEKVHEYNVLLETLSRTEEIHENVISPSDLSDIKGSVLHSRHTELKEKLRSINQGLDRLRRVSHQGYSTEAEFEEPRVIDLWDLAQSANLTDKELEAFREELKHFEAKIEKHNHYQKQLEIAHEKLRHAESVGDGERVSRSREKHALLEGRTKELGYTVKKHLQDLSGRISRARHNEL |  |  |  |  |  |  |  |  |  |  |  |  |  |  |  | blocked | abrogates this process | blocked
